Assay results from patent US20090227489A1, “STAT3 Agonists and Antagonists and Therapeutic Uses Thereof” (Johns Hopkins University, priority 2000, published 2009).

Columns and labels:
[1] = test system: peritoneal macrophages and lymphocytes; assay: Mice injected with transfected B16 cells: macrophage NO production and lymphocyte IFN-γ ELISPOT; format: in vivo; details: transfected B16 cells injected into mice
Method: FIG. 9A-B. Expression of Stat3β in tumor cells leads to activation of macrophages and T lymphocytes in vivo. Mice were injected with B16 cells (2×10^6/mouse) transfected with either GFP or Stat3β expression vectors. Five days later, peritoneal macrophages and lymphocytes were tested for NO production and IFN-γ production, respectively. A. NO production by peritoneal macrophages. B. IFN-γ ELISPOT of lymphocytes.
In addition to direct tumoricidal effect shown herein with production of NO by macrophages, innate immunity critically impacts the development of adaptive immune responses. […] Furthermore, a four-fold increase in IFN-γ production by lymphocytes derived from mice injected with Stat3β-transfected B16 cells was also detected (FIG. 9B).

U266 cells = details: cited from earlier work
B16 cells [2] = assay: Cell cycle analysis by propidium iodide staining and FACS; format: cell-based, murine; details: transfected B16 cells, from 24 hours post transfection
Method: Cell cycle analysis. Cell cycle analysis based on DNA content was performed. Cells were harvested, washed twice in PBS and resuspended in 70% ethanol on ice for at least 30 min. After centrifugation, cells were resuspended in 1 ml of propidium iodide staining solution (50 μg propidium iodide, 1 mg RNase A and 1 mg glucose per ml PBS) and incubated at room temperature for 30 min. The cells were analyzed by FACS using ModFit LT cell cycle analysis software (Verity Software, Topsham, Me.). Cells transfected with vectors encoding EGFP were fixed in 1 ml of 0.5% formaldehyde on ice for 10 min. before adding 70% ethanol.
(§1) This G0/G1 phase arrest was observed as early as 24 hourspost transfection. At 48 hours post transfection with Stat3β vector, Annexin V-PE staining followed by FACS analysis to detect apoptotic activity was performed with transfected B16 cells. A high level of apoptosis in Stat3β transfected cells (75%) relative to empty vector transfected cells (25%) was observed, as shown in FIG. 2C. Increased levels of apoptosis as a result of Stat3β transfection was confirmed by confocal laser scanning microscope analysis using rhodamine-labelled TUNEL assay.

B16 cells [3] = assay: RNase protection assays of cytokine and chemokine RNA in B16 cells; format: cell-based, murine; details: 36 h after transfection
Method: FIG. 7A-B. Stat3β expression in B16 cells upregulates the expression of pro-inflammatory chemokines and cytokines, which can stimulate peritoneal macrophages to produce NO. Elevated expression of pro-inflammatory cytokines and chemokines in B16 cells as a result of Stat3β expression (A. TNF-α, IL-6, IFN-β; B. IP-10). Total RNAs were prepared form mock-transfected, GFP-transfected, Stat3β-transfected and UV-irradiated B16 cells. Data shown have been confirmed with at least one more experiment, in which RNAs were prepared from independent transfectants and UV-irradiated B16 tumor cells.
RNase protection assays. 10 μg of total RNA isolated from either pIRES-EGFP- or pIRES-Stat3 β-transfected B16 cells (36 h after transfection) was hybridized to multi-template probes from PharMingen (mCK-5, Top Panel; mCK-3, Lower Panel) that were labeled with ^32P-dUTP using in vitro transcription. The RNA encoded by GAPDH housekeeping gene was used to normalize the amounts of RNAs loaded in each lane. Similar protocols were used to determine RNA expression profiles of macrophages treated with supernatants derived from B16 cells transfected with either Stat3β or GFP vector. […]
RNA expression profiles of a number of cytokines and chemokines in pIRES-Stat3β transfected B16 cells were determined. […]

B16 cells [4] = assay: Cell growth inhibition assay, live cells by trypan blue exclusion; format: cell-based, murine; details: 48 h later, vs pIRES-EGFP
Method: Cell growth inhibition assay. Cells were plated at 1.7×10^5 cells/well in 6-well plates, followed by transfection with either pIRES-EGFP or pIRES-Stat3β plasmids 24 h later. Cells were harvested at 24 h, 48 h or 72 h to determine the numbers of live cells. Cell viability was determined by trypan blue exclusion.
as §1

Stat3 = target: T1, Stat3 (Mus musculus, UniProt P42227); assay: EMSA of Stat3 DNA-binding activity in nuclear extracts of transfected B16 cells; format: cell-based, murine; details: B16 cells transfected with Stat3β, hSIE probe
T1 construct: endogenous in cells; host or cells: B16 murine melanoma cells (nuclear extracts)
T1 sequence (P42227 whole entry): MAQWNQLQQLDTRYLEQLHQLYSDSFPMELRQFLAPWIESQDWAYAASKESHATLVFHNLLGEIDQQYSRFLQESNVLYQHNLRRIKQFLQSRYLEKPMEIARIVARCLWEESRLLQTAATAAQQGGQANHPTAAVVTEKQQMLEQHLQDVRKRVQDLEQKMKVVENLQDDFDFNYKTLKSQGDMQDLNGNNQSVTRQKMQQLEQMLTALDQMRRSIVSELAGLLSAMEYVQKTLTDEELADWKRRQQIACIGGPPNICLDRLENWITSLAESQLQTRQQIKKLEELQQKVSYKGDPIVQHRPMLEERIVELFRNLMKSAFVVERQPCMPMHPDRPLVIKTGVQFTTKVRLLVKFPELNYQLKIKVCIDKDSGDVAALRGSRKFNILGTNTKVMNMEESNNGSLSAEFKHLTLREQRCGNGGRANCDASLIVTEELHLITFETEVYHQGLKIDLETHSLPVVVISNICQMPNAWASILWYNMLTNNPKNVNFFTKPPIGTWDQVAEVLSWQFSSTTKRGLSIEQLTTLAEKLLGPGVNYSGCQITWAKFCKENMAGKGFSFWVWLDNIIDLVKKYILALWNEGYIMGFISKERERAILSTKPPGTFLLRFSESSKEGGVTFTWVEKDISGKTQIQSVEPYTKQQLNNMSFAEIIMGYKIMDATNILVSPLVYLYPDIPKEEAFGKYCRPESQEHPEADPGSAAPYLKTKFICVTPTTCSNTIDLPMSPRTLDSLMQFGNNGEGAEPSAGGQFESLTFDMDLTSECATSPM
Method: FIG. 1. Inhibition of endogenous Stat3 (SEQ. ID. NO: 1; SEQ. ID. NO:2) DNA-binding activity in B16 cells by overexpression of Stat3β (SEQ. ID. NO:3; SEQ. ID. NO:4). EMSA was performed with nuclear extracts prepared from B16 cells transfected with no DNA (lane 1), empty vector (lane 2) or Stat3β expression vector (lane 3). Extracts from NIH3T3 fibroblasts stimulated with EGF were used as a positive control for Stat1 and Stat3 (lane 4). Supershifts were performed using antibodies recognizing either Stat3 (α-ST3) or Stat3:3 (α-ST3β) with extracts derived from B16 cells transfected with no DNA (lanes 5-7), the empty vector (lanes 8-10), or Stat3β vector (lanes 11-13). ST3:3, and ST1:3, ST1:1 indicate migration of complexes containing Stat3 or Stat3β homodimers, Stat1/Stat3 heterodimers and Stat1/Stat1 homodimers, respectively. The asterisk indicates the position of supershifted complexes.
Nuclear extracts and EMSA. Nuclear extract preparation and EMSA analysis of STAT DNA-binding activity were performed as previously described Catlett-Falcone et al., 1999, supra.
EGF-induced Stat3 binding activity in NIH3T3 (lane 4) was used as a positive control. By supershift analysis with antibody that recognizes Stat3 but not Stat3β or antibody that recognizes Stat3β but not Stat3, it was shown that there were Stat3-Stat3 homodimers in mock-transfected B16 cells and empty vector-transfected B16 cells.

Stat3 DNA-binding complexes (supershift analysis) (Stat3): mostly Stat3β-Stat3β homodimer formation
B1: Stat3β: dominant-negative Stat3 variant, truncated form lacking the transactivation domain; delivered by the pIRES-Stat3β expression vector (protein)
chain: AQWNQLQQLDTRYLEQLHQLYSDSFPMELRQFLAPWIESQDWAYAASKESHATLVFHNLLGEIDQQYSRFLQESNVLYQHNLRRIKQFLQSRYLEKPMEIARIVARCLWEESRLLQTAATAAQQGGQANHPTAAVVTEKQQMLEQHLQDVRKRVQDLEQKMKVVENLQDDFDFNYKTLKSQGDMQDLNGNNQSVTRQKMQQLEQMLTALDQMRRSIVSELAGLLSAMEYVQKTLTDEELADWKRRQQIACIGGPPNICLDRLENWITSLAESQLQTRQQIKKLEELQQKVSYKGDPIVQHRPMLEERIVELFRNLMKSAFVVERQPCMPMHPDRPLVIKTGVQFTTKVRLLVKFPELNYQLKIKVCIDKDSGDVAALRGSRKFNILGTNTKVMNMEESNNGSLSAEFKHLTLREQRCGNGGRANCDASLIVTEELHLITFETEVYHQGLKIDLETHSLPVVVISNICQMPNAWASILWYNMLTNNPKNVNFFTKPPIGTWDQVAEVLSWQFSSTTKRGLSIEQLTTLAEKLLGPGVNYSGCQITWAKFCKENMAGKGFSFWVWLDNIIDLVKKYILALWNEGYIMGFISKERERAILSTKPPGTFLLRFSESSKEGGVTFTWVEKDISGKTQIQSVEPYTKQQLNNMSFAEIIMGYKIMDATNILVSPLVYLYPDIPKEEAFGKYCRPESQEHPEADPGAAPYLKTKFICVTFIDAVWK
increase in IFN-γ production by lymphocytes ([1]; ELISPOT): four-fold
NO production by peritoneal macrophages ([1]; five days later): clear induction of NO production
expression of the Bcl-XL gene (U266 cells): down-regulated expression of the Stat3-regulated Bcl-XL gene
sensitization to Fas-mediated apoptosis (U266 cells; in vitro): dramatic sensitization of cells to Fas-mediated apoptosis
cell cycle distribution (B16 cells [2]): progressive accumulation in G0/G1 phase
expression levels of IL-4 and IL-10 mRNAs (B16 cells [3]): but not IL-4 and IL-10, were elevated
expression levels of IFN-β, TNF-α, IL-6 and IP-10 mRNAs (B16 cells [3]; vs mock, control vector and UV-irradiated B16 cells): elevated
number of live B16 cells (B16 cells [4]): decreases dramatically
